These results are taken from patent publication EP4775595A1 (Beijing Tuo Jie Biopharmaceutical Co. Ltd., dated 2026).

Changes are numbered by the printed parent chain. Read-outs that look alike come from different tables or passages of the source.

Assay [1] concerns the target T1, hIGF-1R-ECD-avi-his (human IGF-1R extracellular region) (human, UniProt P08069 31-935).
T1 construct: It was captured on the chip through its His tag
Description: SPR (Biacore T200), antigen captured by anti-His antibody on CM5 chip, antibody as analyte. On the technique in general: SPR reads the build-up and loss of mass on a sensor chip optically.

Assay [2] deals with human IGF-1R on human non-small cell lung cancer cells (A549) (human, UniProt P08069 31-1367). Description: cell-based or functional assay.
Assay [3] has as its target mouse IGF-1R on mouse myoblasts (C2C12) (mouse, UniProt Q60751 31-1373). As to the kind of experiment: cell-based or functional assay.
Assay [4] addresses T2, mouse IGF-1R (Acro, Cat. IGR-M5223) (mouse, UniProt Q60751 31-936, limits assumed).
T2 construct: Bought reagent; also called murine IGF-1R
Description: SPR (Biacore T200), antigen captured by anti-His antibody on CM5 chip, antibody as analyte.

The target of assay [5] is T1, hIGF-1R-ECD-avi-his (human IGF-1R …). The description is as above. The source holds these as a separate data set.

T2 sequence (Q60751 31-936 limits assumed): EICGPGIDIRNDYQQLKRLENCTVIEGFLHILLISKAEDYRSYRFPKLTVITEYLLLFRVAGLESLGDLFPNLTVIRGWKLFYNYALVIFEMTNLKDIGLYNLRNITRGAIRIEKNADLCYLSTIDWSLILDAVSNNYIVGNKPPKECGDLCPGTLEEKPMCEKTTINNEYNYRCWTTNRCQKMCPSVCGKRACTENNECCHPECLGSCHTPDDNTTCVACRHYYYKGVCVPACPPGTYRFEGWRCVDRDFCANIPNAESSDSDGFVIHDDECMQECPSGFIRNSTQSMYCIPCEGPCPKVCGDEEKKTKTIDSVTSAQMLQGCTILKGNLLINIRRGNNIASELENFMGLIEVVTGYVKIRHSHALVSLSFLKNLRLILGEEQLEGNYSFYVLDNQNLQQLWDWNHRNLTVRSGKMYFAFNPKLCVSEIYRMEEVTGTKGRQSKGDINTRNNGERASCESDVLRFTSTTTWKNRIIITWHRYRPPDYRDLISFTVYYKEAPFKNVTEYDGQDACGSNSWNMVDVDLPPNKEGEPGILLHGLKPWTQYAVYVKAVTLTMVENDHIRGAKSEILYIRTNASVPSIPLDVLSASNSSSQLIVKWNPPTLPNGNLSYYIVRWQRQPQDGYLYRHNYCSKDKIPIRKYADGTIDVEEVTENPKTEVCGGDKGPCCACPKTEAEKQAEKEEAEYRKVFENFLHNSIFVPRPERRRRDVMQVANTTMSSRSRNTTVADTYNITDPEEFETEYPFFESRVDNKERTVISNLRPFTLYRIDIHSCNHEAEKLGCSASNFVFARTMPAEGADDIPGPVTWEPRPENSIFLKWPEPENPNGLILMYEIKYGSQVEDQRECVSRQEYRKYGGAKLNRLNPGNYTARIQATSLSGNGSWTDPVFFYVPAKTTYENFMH
T1 sequence (P08069 other isoform, or with tags, fused parts or gaps limits assumed): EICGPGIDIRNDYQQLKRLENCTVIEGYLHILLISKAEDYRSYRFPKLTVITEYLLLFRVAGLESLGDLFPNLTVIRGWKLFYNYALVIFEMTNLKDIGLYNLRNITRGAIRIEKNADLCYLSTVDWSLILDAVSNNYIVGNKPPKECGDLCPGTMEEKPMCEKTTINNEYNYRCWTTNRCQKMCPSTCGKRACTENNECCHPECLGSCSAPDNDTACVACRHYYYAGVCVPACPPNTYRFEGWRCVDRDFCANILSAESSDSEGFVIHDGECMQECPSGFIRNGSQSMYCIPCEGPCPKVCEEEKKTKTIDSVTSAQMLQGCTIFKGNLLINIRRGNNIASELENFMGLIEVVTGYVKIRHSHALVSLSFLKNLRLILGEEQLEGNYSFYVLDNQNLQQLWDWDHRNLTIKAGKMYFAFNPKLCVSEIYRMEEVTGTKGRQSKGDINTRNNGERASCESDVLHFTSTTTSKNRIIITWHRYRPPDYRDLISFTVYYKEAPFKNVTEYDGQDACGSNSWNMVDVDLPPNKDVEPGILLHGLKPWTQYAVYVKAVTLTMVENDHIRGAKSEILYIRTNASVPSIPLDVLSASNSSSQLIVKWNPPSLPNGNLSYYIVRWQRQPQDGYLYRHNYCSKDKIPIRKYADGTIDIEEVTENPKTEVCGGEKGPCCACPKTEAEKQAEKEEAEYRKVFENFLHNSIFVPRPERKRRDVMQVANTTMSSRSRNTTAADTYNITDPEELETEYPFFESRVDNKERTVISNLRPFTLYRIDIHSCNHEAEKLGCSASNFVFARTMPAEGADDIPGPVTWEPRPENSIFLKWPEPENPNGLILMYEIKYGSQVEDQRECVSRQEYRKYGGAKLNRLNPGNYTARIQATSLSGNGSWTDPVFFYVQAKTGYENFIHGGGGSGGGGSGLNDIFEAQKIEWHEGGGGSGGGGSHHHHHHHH
human IGF-1R on human non-small cell lung cancer cells (A549), sequence (P08069 31-1367): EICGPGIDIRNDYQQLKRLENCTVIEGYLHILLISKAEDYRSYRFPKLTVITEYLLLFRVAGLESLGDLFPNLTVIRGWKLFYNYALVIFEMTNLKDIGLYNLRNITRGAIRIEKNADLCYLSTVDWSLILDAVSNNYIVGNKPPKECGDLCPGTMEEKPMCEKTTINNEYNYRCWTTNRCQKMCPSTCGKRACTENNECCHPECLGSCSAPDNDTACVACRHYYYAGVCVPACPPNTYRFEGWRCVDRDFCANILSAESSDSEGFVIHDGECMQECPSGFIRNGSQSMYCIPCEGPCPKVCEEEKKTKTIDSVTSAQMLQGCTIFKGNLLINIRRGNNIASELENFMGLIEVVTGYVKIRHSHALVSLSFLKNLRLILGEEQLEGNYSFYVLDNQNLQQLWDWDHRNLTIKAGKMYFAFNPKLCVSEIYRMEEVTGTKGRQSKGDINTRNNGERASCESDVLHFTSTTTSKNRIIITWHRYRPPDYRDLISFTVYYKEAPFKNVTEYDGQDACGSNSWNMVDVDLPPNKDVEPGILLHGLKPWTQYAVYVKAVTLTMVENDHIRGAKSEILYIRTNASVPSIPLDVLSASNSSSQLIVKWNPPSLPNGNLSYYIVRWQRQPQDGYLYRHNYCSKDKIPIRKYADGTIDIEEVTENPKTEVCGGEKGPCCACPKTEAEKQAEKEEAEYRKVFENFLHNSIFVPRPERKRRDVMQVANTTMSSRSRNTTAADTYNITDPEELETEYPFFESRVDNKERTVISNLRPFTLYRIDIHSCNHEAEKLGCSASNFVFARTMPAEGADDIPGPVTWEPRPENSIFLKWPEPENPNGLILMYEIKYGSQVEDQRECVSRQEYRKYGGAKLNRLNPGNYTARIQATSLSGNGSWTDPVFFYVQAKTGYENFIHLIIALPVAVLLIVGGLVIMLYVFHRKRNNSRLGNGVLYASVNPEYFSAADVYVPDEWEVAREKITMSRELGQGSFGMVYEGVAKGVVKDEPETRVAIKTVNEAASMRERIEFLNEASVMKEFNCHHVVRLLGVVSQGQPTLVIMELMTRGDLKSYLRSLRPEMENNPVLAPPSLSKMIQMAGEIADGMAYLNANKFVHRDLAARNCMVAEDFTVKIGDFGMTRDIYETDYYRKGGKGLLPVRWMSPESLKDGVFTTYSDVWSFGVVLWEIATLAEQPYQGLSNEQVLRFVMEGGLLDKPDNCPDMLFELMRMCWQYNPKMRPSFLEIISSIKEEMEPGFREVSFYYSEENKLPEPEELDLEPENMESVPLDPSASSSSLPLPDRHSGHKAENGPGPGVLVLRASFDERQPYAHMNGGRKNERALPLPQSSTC
mouse IGF-1R on mouse myoblasts (C2C12), sequence (Q60751 31-1373): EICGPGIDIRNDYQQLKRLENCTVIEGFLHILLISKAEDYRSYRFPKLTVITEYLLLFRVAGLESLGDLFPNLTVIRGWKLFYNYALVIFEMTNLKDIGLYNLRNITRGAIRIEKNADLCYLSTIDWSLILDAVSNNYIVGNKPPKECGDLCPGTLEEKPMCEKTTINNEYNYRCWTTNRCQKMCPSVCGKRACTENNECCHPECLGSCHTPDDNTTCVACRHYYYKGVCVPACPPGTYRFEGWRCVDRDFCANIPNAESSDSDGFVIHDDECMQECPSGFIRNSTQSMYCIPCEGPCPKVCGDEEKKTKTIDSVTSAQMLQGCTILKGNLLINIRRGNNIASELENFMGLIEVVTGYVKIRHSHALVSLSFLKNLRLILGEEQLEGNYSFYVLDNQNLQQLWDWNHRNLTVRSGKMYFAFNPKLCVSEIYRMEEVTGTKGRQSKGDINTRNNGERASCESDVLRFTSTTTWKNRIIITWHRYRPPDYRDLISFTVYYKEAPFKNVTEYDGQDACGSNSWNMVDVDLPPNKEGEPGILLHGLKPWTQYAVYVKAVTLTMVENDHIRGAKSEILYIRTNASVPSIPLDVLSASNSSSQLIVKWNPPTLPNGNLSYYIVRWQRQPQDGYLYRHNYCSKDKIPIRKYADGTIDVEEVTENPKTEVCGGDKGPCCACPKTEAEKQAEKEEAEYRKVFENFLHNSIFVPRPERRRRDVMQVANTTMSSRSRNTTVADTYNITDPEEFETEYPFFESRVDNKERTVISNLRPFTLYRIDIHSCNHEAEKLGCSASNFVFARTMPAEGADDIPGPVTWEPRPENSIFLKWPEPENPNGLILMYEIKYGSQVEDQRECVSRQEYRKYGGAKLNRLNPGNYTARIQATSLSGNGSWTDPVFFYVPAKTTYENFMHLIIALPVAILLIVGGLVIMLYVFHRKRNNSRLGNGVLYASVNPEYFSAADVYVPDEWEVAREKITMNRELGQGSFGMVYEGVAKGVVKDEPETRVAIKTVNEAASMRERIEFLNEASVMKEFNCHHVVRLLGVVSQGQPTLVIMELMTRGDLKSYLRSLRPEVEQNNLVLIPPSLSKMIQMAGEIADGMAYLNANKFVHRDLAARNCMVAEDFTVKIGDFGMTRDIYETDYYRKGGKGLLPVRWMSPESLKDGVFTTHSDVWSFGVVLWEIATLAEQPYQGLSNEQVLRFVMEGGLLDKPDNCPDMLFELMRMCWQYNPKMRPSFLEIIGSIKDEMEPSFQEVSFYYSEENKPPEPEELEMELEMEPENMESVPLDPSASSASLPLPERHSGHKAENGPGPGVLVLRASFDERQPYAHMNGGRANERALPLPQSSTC

B1: IG05-hu1 (VHH)
VHH: EVQLVESGGGLVQPGGSLRLSCTASGLTFGTFGMAWFRQAPGKEREGVSAISASSGRTYYADSVKGRFTISRDNSKNTLYLQMNSLRAEDTAVYYCAVRSKNGAGYGFWYEARLYGYWGQGTLVTVSS
notes: Humanized IG05; also called IG05-hul
As for B1, in assay [1], binding was put at a Kd of 0.395 nM, the koff amounted to 0.00072 s⁻¹ and the kon turned out to be 1.82e+06 M⁻¹ s⁻¹.

B2: IG05-hu2 (VHH)
VHH: B1 VHH with S75A
notes: Humanized IG05
In assay [1], B2 yielded a dissociation constant (Kd) of 0.361 nM, a koff of 0.000772 s⁻¹ and a kon of 2.14e+06 M⁻¹ s⁻¹.

B3: IG05-hu3 (VHH)
VHH: B1 VHH with N84D, S85A
notes: Humanized IG05
In assay [1], B3 came in with a Kd of 0.403 nM, a koff of 0.000723 s⁻¹ and a kon of 1.79e+06 M⁻¹ s⁻¹.

B4: IG05-hu5 (VHH)
VHH: B1 VHH with T23A, L27F
notes: Humanized IG05
In assay [1], B4 displayed a Kd of 0.258 nM, a koff of 0.000474 s⁻¹ and an on-rate (kon) of 1.83e+06 M⁻¹ s⁻¹.

B5: IG05 (VHH)
VHH: B1 VHH with E1Q, P14A, S75A, N84D, S85A, R87K, A88P, V93M, L123Q
notes: Camel single-domain antibody against IGF-1R
Regarding B5, in assay [1], the Kd was determined as 0.346 nM, the koff was 0.000749 s⁻¹ and the kon is 2.17e+06 M⁻¹ s⁻¹.

B6: IG05-hu4 (VHH)
VHH: B1 VHH with T23A
notes: Humanized IG05
In assay [1], B6 showed a Kd of 0.507 nM, a koff of 0.000882 s⁻¹ and a kon of 1.74e+06 M⁻¹ s⁻¹.

B7: IG06-hu4 (VHH)
VHH: EVQLVESGGGLVQPGGSLRLSCAASRYIVSTRCLGWVRQAPGKEREEVSTIDTAGRPTYADSVKGRFTISRDGAKNFLYLQMNSLRAEDTAVYYCAAASSDNCRYFPSNLGQGTLVTVSS
With B7, in assay [1], the Kd is 4 nM, the koff came to 0.00299 s⁻¹ and the kon came out at 748000 M⁻¹ s⁻¹.

B8: IG06-hu6 (VHH)
VHH: B7 VHH with K43N, G73N, A74S, F77T
In assay [1], B8 gave an equilibrium dissociation constant (Kd) of 1.55 nM, a koff of 0.00226 s⁻¹ and a kon of 1.46e+06 M⁻¹ s⁻¹.

B9: IG06-hu2 (VHH)
VHH: B7 VHH with G73N, A74S, L110W
In assay [1], B9 showed a Kd of 34.7 nM, a koff of 0.0277 s⁻¹ and a kon of 800000 M⁻¹ s⁻¹.

B10: IG06-hu5 (VHH)
VHH: B7 VHH with V48I, S49A
Turning to B10, in assay [1], the Kd was found to be 2.67 nM, the off-rate constant (koff) amounted to 0.0024 s⁻¹ and the kon came to 899000 M⁻¹ s⁻¹.

B11: IG06-hu1 (VHH)
VHH: B7 VHH with G73N, A74S, F77T, L110W
In assay [1], B11 came in with a Kd of 29.3 nM, a koff of 0.0265 s⁻¹ and a kon of 905000 M⁻¹ s⁻¹.

B12: IG06 (VHH)
VHH: QVQLVESGGGSVQAGGSLRLSCAASRYIVSTRCLGWVRQAPGNEREEIATIDTAGRPTYADSVKGRFTISKDGAKNFLYLQMNSLKPEDTAMYYCAAASSDNCRYFPSNLGQGTQVTVSS
notes: as for B5
In assay [1], B12 returned a Kd of 0.889 nM, a koff of 0.000675 s⁻¹ and an association rate constant (kon) of 759000 M⁻¹ s⁻¹.

B13: IG06-hu3 (VHH)
VHH: B7 VHH with L110W
In the case of B13, in assay [1], the Kd was 27.3 nM, the off-rate (koff) came out at 0.0231 s⁻¹ and the on-rate constant (kon) stood at 847000 M⁻¹ s⁻¹.

B14: PHP1003 (Suzhou PRO-HEAL, CN113512116) (antibody, V domains shown)
VH: QVQLQESGPGLVKPSGTLSLTCAVSGGSISSSNWWSWVRQPPGKGLEWIGEIYHSGSTNYNPSLKSRVTISVDKSKNQFSLKLSSVTAADTAVYYCARWTGRTDAFDIWGQGTMVTVSS
VL: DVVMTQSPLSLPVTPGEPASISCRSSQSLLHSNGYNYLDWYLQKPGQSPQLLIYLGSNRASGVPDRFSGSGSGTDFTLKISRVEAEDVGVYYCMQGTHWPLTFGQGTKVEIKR
notes: Positive control anti-IGF-1R antibody
Turning to B14, in assay [2], the “IC50 (nM), inhibition of IGF1-induced pAKT signaling in A549 cells” value amounted to 33.6 nM. Further, the “IC50 (nM), inhibition of IGF1-induced pAKT signaling in C2C12 cells” value in assay [3] came to 4240 nM. In assay [4], this molecule returned a Kd of 0.337 nM, a koff of 0.00112 s⁻¹ and a kon of 3.32e+06 M⁻¹ s⁻¹. In assay [5], this molecule came in with a Kd of 0.262 nM, a koff of 0.00107 s⁻¹ and a kon of 4.1e+06 M⁻¹ s⁻¹.

As usually defined, the Kd is the constant that tells how readily two partners part at equilibrium. A higher Kd goes with a looser complex. In general, koff refers to the first-order rate constant of dissociation. A high value points to fast dissociation. A word on the kon: it is a measure of how fast the partners come together. A lower kon goes with slower complex formation.
